From the DeepSol protein solubility set

Experiment: soluble on expression in E. coli; label from the status in PepcDB or PDB records

Sequence | soluble on expression in E. coli
MTVSLLDSSTRYHAVTALNGNVLFSGARRPMPTVMLLHTPPPEFIRSQIQQMVVDYVTDISMVAIAPGNPLYNLYQYGVGYEVHLYLNAMNGSQSLTVELIVALDDEDPETVLGFLLYLPVQDDPQACAVAYMAVLESHRCQGIARLMLDRMVSRYAHAELYCTVAKVPYFQAMGFQVLGARGPQVIMNTRDHGTDGLLAVMDIAPIYSSVEVRQIHAYLLKQHGNTAMLDAEKQRDHHLDRMTREARAFAEQHLENGDSVHGVSATVRLH | not soluble
SEKKECPEKSSSSEEELPRRDSGSSRNIDASKLIRLQGSRKLLVDNSIRELQYTKTGIFFQAEACVTNDTVYRELPCVSETLCDISHFFQEDDETEAEPLLFRAVPECQLSGGDIPSVSEEQESSEGQDSGDICSEENQIVSSYASKVCFEIEEDYKNRQFLGPEGNVDVELIDKSTNRYSVWFPTAGWYLWSATGLGFLVRDEVTVTIAFGSWSQHLALDLQHHEQWLVGGPLFDVTAEPEEAVAEIHLPHSISLQAGEVDVSWFLVAHFKNEGMVLEHPARVEPFYAVLESPSFSLMGILLRIASGTRLSIPITSNTLIYYHPHPEDIKFHLYLVPSDALLTKAIDDEEDRFHGVRLQTSPPMEPLNFGSSYIVSNSANLKVMPKWISSL | soluble
MAHHHHHHMSISIRSTAQRQLARRQPPTTSSSSVSLPRAAFAPASRSASAVEATSESASSSQVPEQQEATPTRILDNARSSSCAAAPPPFSASSDQRSDQINKCIHDTSTLTSKPPPSASSASSRGAAAPSLPPSAPSSTTGAPRSGHDAEPEGLHDAASSTAAPSGAGSSAVANSQRTAASHSLLYSVSRFTEPVKRIILIRNGRSEANEDVRAYVQTPDWRIPLVEEGKREAIAAGRALSELIGDGPVYFYYSPYIRSRQSLRYVLQGFDEARLSGLSHSREWWEDEETAAVASAAAAAESSTLKCATASADEAGSPPLLAPAPSAISTNATSSDAQCCFHRDPSLVLNRGTSNNIIGVREDVRLRDGDIGRYTSADELMHHLVERERYGRFFYRFPFGESGADVCDRVTSFLDAFQRERVEFPMDTSVVIITHGLTMRMLIKRWFYLTVETFHKMKSPPPGSLCTLTRLHHRSCFRLDECCVESMNLPLSLNEFNGYKYRNKQLLGSMSSGAPYM | not soluble
MGSDKIHHHHHHMPRNLPPLYALRAFEAAARHTSFTRAAEELSITQSAVSRHIRTLEEHFACRLFQRNGRNLQLTESARTLLPGVRDGFLALERACSTLQTDEGVLRMKAPSTLTMRWLLARLSRFRHLQVGNEVQLTSAWMDIDAVDFTREPFDCAILLSQGHFPSDWEATLLFAELLIPVGAPTLSQDPPWDVERLAKAELLHPTPDRRDWRTWLNRMGLADQVSLKGGQVFDTLELGMIAAARGYGVSMGDLLMVAEDLAQSRLSLPWRTAVFSGENYYLVWPRTRPGAERLRRLSDFLQAEVKAMKLPLVEVLR | not soluble
MLQNQYVREMRKYGVRGLRYDAAKHSKHEQIERSITPPLKNYNERLHNTNLFNPKYHEKAVMNYMEYLVTCQLDEEQMSSLLYERDDLSAIDFSLLMKTIKAFSFGGDLQTLASKPSSTISSIPSKRRILININHDFPNNGNLFNDFLFNHQQDEQLAMAYMAALPFSRPLVYWDGQVLKSTTEIKNYDGSTRVGGEAWLNKGCSTYQQLYNEFHALYIDKAGIWSAFEGVFATKNVLAFSRGDSVNINHSPHDGLVIINKGNEEVEGAWPNKLQPGKYKNMGSNSVNIIINNTRKIIPPGKAFMLRGGTLNINIPGRSALLLGKTGEPLNYLYL | not soluble
MESVRRGKLMKNKKIKFDVYLNGIAYHCIKCGFCCDAPTVTKKDLAKIAGYLKIPFDEVLKRYVRFFNGYIGELKEVGGKCIFLDKKTKKCKIYKVRPLICRLRPYSVQVRNGKLTLTYDIWFLRYCRGLYLGDGKVEDEYFKYAELVLKYLGFEEGVDEEEFKRAKERLLEESLKYRKKKDLEHHHHHH | soluble
MNKIRYPAVAGLFYPSHPDELIDMIEQCYLHKFGPKSMPVHGTYEKPIGLLCPHAGYVYSGPIQAHSYYELSKRVDALEETTVVILGPNHTGLGSGVSVMDGIWRTPLGDVKCDEEFVEELWRKCEIVDLDETAHLNEHSIEVQLPFLKHLELLNIAKFKIVPICMMFQDYETAVEVGYFIAKIAKELNRRIVVIASSDLTHYEPQEIASKKDAIVIKDILEMNEKELYEDVVNYNISMCGYGPVIAMLKAMKTLGAEKAKLLAYATSGDITGDYSAVVGYASAIVELEHHHHHH | soluble
MSAFQGNMFVLVNVDQHRDLIGPIINQLVADYGTPVSIVDNIQKICPKCSCTPHANPDSSSVPTTTSSDEHQEEPPTPKTIAPAPIATPVLKPLLPQRESIVSNGIHPVVVKRKQSIAEEIDTPEIKKSRVVEPVKVKTETIILDDDDGNVLDTVLAALQNGNHEMQFTGSGGSSDDGASNSSNIYDVDDEDYGTSQWNPDFLTNFITSQPNIFSVTGQNIKSSPSKNAGQTPNGKRQVPPMLTVNGKTRRGRIVYSTQELNILEKYYEEDPNACADPRKRETMCKTLSIDYHRLKVWFQNRRRKDKVRSQEEAATTFNGLDYSEDS | not soluble
MKAFNYYAPTEIIFGCGRVQEIGSITAQYGKKALLVTVPEFPEVKELYEKVKKSLRENGVEVVHFDGVIPNPTTDVVTEGANMAKAAGVDVVIGLGGGSSIDTAKAIAVEATHPGTAWDYNCHTPGPTSATLPIIAIGTTAGTGSQCTQCAVITKTSEKDKSAIWHKNIFPKVAIVDPEVTVTMPKSVTAQTGFDAFAHNFEAYLSVKTSPLVEMMAIEAIKMIKEYLPKALENPNDIEARSKMSLADTLGGLTNSNAGVTLPHGLGMQVGGHAPHVSHGQALAIIYPQFTRYTYAWAIEKFAKVGRIFNPALNELSDEEAAKEACVAIDDFLKKIGLWIGFKDVNVTKEQIREIADDGQVLGDYLNNPRVATIDEMYELLMNCYERKE | soluble
MAHHHHHHMPLVKAETDASFVAEVAESVGGACARMNDHISVMIEEYLRRRTQQVRDDVKQELDAVRVHLERKIADAEAAKAVEEERYHKKKVQVLQAAVELQKMHANLHLQRLFHTWRRCADVRQERRRLAEEAHIHIGRLSLFHAYMQWRLFAAALRQKRLEAKEAHKRDCREQELLGQIEGYQRQLEGERAKDASLNEKLKEAFVRGMCALNREAVHVLHGSEENQDADVEAIAEILSRESHSRHRSVTPGHMDSSTLSNVHGHGVCPVHHIDAKGSFYHPCFSPGYCEYDRHSGSRAPVSSAVPPSASGPFVVSADPKSARSIDSSPPVPFRHLSKSSTTRWRM | not soluble
NGESYNFALNSGYTKLSDNAEVKIAVDKIADLVSNMTVHLMENTEKGDIRIRDELSRKIDINPYSLMTRKTWIYNIVSNLLLYGDGNAIVLPEIKNGLISELKPLDPSLVDFDVRDDSYKIHYKNKTYNPDEVVHFAINPDSEYPFIGTGYRVALKSLVDNLNQATATKKAFMSSKFMPNLIVKVDANAAELSSEKGKNKIEDMYLQRTEEGKPWIIPADLIEIEQVKPLSLNDIAINEAVNIDKKTVAGLLGVPAFFVGVGEFDKNEFNNFINTRIMSIAMIISQTLTRDLLISPTRFFKLNPRSLYSYDITELVAAGGQMVDRIAMDRNELRDWIG | not soluble
MVHKSVESPAFSASIEDYALIGDQQSAALVARDGSIDWLCLPRFDSPACFAALLGDEHNGKWRIAPKGAGPCTRRAYRTDSLVLDSEWDTPEGTLRVTDLMPQRDSAPDLVRIVEGLRGRVTVRSAIRLRFDYGLEHHHHHH | soluble
MAHHHHHHMSMHSVEGALCSCSMCKLTCHTASVYANQRRASKHVMLARPSPFYAETGGLPPEVPQLAPPPERLVVCPVFEEYGFCPFGRICFLPHSGEKTPLVERKGTSREELERLREKARLQEEEELWSCDVCGFDGIDENTQGRVGEMYYYRNCPRCSLMCYFPHIAYLVDAIFDASGDDYQIFKDEIDRCRRELPDILKVPLTYEAHRIASTAFAWSLVSPKHVKDALDAAYRALPEMSCIVSVGSGVGYVEHIFNRVANGVPAAPRDPDPALGISSFEGVHACFYPKKKLPIYAFDEVALNCPYSVCVSLGGPVALLSLQCPTSVLLLSWPPFGSPKEEQSSMAFEALEYFTQAGGKVVIYIGDVASTGDWRFHELLYTHYKLVKDYTVRREVRRWSPQDMGLVYAGNDTIGVYKLRSERLPSPQWQWDGRSS | not soluble
MGSDKIHHHHHHMPAAATLADWKAASVPDFLAERSRQELARLGNPGWWGPPDLEALAELMQLAAAEGWRILPAGRGTRLDWGGLGHPVDAVISTAACDRLIEHAAADLTVTVEAGMTLGQLQTILAETGQWLPFDPIAGESSSLGALVSTGMSGSLRHRYGSLRDFLIGITFLRHDGQWAKGGGRVVKNVAGYDMMKLLHGAWGSLGLIGKLTFRTYPLPNAWGTIACQGDREAILQLRSQLVRSDLTPVAFDLLSPAAAAELELRSQWTVLLRFGSVAASVQEQQQVVELQATRLGLAAMTVAEPVWGQLNQSFEPRSRSATLIKFALLPSQLPCLLAELEAIAPTALGRVHAASGAGWLVWPEAEPTVETLLRLRRHCEVAEGFLSVLAASVSLKQQLDIWGYPGQGLAVMRAIKRQFDPQSRLAPGRFLAGLEE | not soluble
MNERHVLVVFPHPDDEAFGVSGTIAEHAQNGTPVTYACLTLGEMGRNMGVPPFANRETLPHIRKQELEEACRILGIHDLRLLGYRDKTVEFEDEEELADQIAAIVAETNPSLVITFYPGYSVHPDHDACGAAVIRALKRWPKEERPTVHCVAFAKNCEQDLGQPDVVRDVSSVIDTKLAAIRAHRSQTEGLMQAASKRGDALAWLKTERFWTYRWDD | soluble
MKLYYTPGSCSLSPHIVLRETGLDFSIERIDLRTKKTESGKDFLAINPKGQVPVLQLDNGDILTEGVAIVQYLADLKPDRNLIAPPKALERYHQIEWLNFLASEVHKGYSPLFSSDTPESYLPVVKNKLKSKFVYINDVLSKQKCVCGDHFTVADAYLFTLSQWAPHVALDLTDLSHLQDYLARIAQRPNVHSALVTEGLIKE | soluble
MFFSVVIPTYNRLPILEKCLRALEQQTFDETLISGYEIVVVDDGSTDGTLAWLDGHCQGFPHVRTWEQDHQGPAAARNLGVKEAAGDTIIFIDSDLVVTDIFLQAHAEGLQRGQKQYNSDRVFTYGAVVNTCNFDSPQSEPYKLTDYSAAFFATGNVAIAKQWLLEAGLFDTGFQLYGWEDLELGVRLKNLGLKLVKCPRAVGYHWHPPFSLQQIPKLIDQEIQRGRMGVLFYQKHPTWEVRLMIQMTRLHWFLWGLLSLGGRLNEKTMAPLLQWLIDHDRPQLALEIARIFLNWYNVQGVYAAFAESQSSHLEHHHHHH | not soluble
VKSKAKKTVDKHSDEYKIRRERNNIAVRKSRDKAKMRNLETQHKVLELTAENERLQKKVEQLSRELSTLRNLFKQLPEPLLASSGHC | soluble
MLNETIQKEFQRKEIKYLIEADTFEQLQKEFKDYLTPDRFTHSSITNIYFDNPDFQLIKDSINHRHASEKIRMRTYDPKPTQKSQAFLEIKKKEYQGEQEIGYKYRLTSTPLSLCNYVQQGIIDNNIKQDDRANHELAILRERYKKLVPKMFIHYERFSLRGIENPKLRVTFDRNVIYRHENVNLTSGFNGYPLLKNNQIVMEIKVKNGLPAWMEKIFHKHQLIPQSFSKYTTAYLKAYGLTPEDIREEPTSIALEHHHHHH | soluble
MGSDKIHHHHHHMIKLILSAPVPAMAVAFEHSFQNTENVEIIPGPFETIPEFDCMVSAANSFGLMDGGVDAAITAYFGPQLQERVQQHILREYLGEQPVGTAFVIETGNSKYPWLVHAPTMRVPLIIDGTDAVYNATRAALLAIFQHNKSAGEDRKIKSVVFPAMGAGCGQVSPGSVARQMKLAWDGFINCTTEINWQYASARQNAVFSTTAYCPSKALCPNARTEYIGFGDYRTYCKKSGNTCISPRHQVDDIYIGAHSHAVFLSPNSHGKHLKPEYLSGVKNDV | not soluble
